Measured values as given in patent US20240010724A1 (Amgen, published 2024).
Substitutions are numbered along the chain they refer to.

Experiments:
Experiment in all cases: flow cytometry, transfected 293T cells
[1] = target: T1, huCDH19(44-141)::muCDH19(140-770) (human/mouse chimera)
T1 construct: also called Hu EC1

[2] = target: T2, muCDH19(44-139)::huCDH19(142-249):muCDH19(248-770) (human/mouse chimera)
T2 construct: also called Hu EC2
T2 chain: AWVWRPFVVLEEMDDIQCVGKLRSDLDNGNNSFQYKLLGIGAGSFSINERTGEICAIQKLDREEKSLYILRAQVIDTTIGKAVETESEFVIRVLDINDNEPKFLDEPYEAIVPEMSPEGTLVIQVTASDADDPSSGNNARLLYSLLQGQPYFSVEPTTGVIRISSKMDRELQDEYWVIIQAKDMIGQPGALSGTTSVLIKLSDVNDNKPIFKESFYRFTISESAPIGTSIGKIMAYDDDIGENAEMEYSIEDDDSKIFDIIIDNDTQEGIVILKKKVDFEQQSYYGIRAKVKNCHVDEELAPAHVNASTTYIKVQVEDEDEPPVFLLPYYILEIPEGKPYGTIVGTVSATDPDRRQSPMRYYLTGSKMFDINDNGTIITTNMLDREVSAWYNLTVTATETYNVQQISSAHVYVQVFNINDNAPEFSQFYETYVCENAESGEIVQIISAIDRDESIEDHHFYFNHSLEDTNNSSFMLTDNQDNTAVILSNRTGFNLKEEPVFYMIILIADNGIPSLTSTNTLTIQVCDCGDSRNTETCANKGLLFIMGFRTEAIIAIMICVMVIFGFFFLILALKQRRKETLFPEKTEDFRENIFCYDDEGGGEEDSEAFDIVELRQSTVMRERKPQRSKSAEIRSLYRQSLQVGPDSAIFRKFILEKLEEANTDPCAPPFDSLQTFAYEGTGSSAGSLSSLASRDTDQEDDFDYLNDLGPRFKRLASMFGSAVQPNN

[3] = target: T3, muCDH19(44-362)::huCDH19(365-772) (human/mouse chimera)
T3 construct: also called Hu EC4-5
T3 chain: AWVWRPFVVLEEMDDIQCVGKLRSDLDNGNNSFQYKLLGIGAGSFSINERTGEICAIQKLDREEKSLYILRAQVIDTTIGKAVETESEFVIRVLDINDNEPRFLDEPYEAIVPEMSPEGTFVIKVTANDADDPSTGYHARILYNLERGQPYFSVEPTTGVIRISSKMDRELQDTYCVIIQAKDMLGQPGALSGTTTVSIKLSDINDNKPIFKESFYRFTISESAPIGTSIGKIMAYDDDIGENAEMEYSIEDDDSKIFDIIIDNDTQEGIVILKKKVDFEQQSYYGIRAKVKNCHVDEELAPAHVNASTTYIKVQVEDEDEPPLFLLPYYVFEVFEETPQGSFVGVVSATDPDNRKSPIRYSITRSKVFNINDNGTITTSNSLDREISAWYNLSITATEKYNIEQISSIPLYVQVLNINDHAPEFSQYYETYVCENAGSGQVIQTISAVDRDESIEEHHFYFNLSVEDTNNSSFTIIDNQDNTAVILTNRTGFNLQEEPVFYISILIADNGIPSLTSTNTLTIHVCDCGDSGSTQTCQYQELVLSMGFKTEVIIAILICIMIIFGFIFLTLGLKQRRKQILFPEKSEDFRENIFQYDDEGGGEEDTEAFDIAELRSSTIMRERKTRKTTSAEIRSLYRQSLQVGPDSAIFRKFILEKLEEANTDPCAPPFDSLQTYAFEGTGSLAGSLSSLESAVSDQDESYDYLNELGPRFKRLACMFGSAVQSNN

[4] = target: T4, muCDH19(44-139)::huCDH19(142-364)::muCDH19(363-770) (human/mouse chimera)
T4 construct: also called Hu EC2-3

[5] = target: T5, huCDH19(44-249)::muCDH19(248-770) (human/mouse chimera)
T5 construct: also called Hu EC1-2

[6] = target: T6, muCDH19(44-461)::huCDH19(464-772) (human/mouse chimera)
T6 construct: also called Hu EC5
T6 chain: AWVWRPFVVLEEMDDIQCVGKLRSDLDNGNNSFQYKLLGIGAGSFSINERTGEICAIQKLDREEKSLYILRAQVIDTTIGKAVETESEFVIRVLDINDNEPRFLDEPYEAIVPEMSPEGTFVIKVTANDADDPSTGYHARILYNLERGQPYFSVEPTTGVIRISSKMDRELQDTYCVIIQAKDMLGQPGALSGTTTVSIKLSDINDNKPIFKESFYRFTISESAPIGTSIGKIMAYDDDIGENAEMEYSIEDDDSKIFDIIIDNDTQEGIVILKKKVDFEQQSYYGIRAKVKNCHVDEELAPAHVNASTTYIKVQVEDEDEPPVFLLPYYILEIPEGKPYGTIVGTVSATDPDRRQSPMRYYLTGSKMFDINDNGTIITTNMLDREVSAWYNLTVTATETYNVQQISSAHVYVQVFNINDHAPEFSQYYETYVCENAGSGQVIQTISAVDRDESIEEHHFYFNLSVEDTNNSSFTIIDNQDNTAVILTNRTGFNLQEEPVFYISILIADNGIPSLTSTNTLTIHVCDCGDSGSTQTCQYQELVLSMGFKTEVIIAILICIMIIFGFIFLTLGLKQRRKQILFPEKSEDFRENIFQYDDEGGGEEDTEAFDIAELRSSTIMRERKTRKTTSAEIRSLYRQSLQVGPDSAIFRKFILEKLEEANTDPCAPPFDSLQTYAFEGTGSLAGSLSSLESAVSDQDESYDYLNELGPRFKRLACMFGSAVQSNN

[7] = target: T7, muCDH19(44-247)::huCDH19(250-364)::muCDH19(363-770) (human/mouse chimera)
T7 construct: also called Hu EC3

[8] = target: T8, muCDH19(44-770) (mouse)
T8 construct: also called Mu EC1-5
T8 chain: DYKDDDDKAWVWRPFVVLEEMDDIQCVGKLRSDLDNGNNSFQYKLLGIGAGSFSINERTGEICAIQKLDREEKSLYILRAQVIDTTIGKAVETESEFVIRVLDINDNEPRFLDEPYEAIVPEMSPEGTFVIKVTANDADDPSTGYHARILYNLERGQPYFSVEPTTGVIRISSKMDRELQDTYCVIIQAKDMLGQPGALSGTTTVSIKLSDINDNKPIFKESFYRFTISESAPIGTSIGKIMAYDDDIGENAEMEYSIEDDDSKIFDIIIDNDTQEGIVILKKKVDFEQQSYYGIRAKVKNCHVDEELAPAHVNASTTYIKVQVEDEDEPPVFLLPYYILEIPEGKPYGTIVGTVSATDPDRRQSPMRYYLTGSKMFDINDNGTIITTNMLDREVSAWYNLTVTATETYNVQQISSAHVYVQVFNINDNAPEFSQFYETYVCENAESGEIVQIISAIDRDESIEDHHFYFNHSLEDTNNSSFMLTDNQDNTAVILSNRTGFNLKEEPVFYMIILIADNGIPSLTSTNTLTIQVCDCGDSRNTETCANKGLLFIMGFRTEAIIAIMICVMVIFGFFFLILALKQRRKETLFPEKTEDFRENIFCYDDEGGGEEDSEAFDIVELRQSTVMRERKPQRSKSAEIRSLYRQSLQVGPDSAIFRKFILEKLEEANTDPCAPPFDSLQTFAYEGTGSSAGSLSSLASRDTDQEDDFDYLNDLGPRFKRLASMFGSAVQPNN

[9] = target: T9, huCDH19(44-772) (human, UniProt Q9H159 44-772)
T9 construct: also called Hu EC1-5

Measured: binding result

B1: anti-CDH19 antibody 14039 (antibody, human IgG1, lambda, V domains shown)
VH: QVQLVESGGGVVQPGGSLRLSCAASGFTFSSYGMHWVRQAPGKGLEWVAFIWYEGSNKYYAESVKDRFTISRDNSKNTLYLQMNSLRAEDTAVYYCARRAGIIGTIGYYYGMDVWGQGTTVTVSS
VL: SYELTQPPSVSVSPGQTASITCSGDRLGEKYTSWYQQRPGQSPLLVIYQDTKRPSGIPERFSGSNSGNTATLTISGTQAMDEADYYCQAWESSTVVFGGGTKLTVLG
binds: [1] | [2] | [3] | [4] | [5] | [6] | [7]

B2: anti-CDH19 antibody 14304 (antibody, V domains shown)
VH: B1 VH with E54D, E62D, N84K
VL: B1 VL with T32V, R38K, L44I, T51N, R53W, E91D
binds: [8] | [1] | [2] | [3] | [4] | [5] | [6] | [7] | [9]

B3: anti-CDH19 antibody 13590 (clone 4B10) (antibody, V domains shown)
VH: QVQLVESGGGVVQPGRSLRLSCAASGFTFSSYDMHWVRQAPGKGLEWVAVISYDGTNEYYADSVKGRFTISRDTSKNTLYLQMNSLRAEDTAVYYCARERYFDWSFDYWGQGTLVSVSS
VL: EIVLTQSPGTLSLSPGERATLSCRASQSVSNTYLAWYHQRPGQAPRLLIYGASSRATGIPDRFSGSGSGTDFALTISSLEPEDFAVYYCQQYSNSWTFGQGTKVEIKR
notes: fully human XenoMouse monoclonal antibody; bin 4
binds: [4] | [7]

B4: anti-CDH19 antibody 13589 (clone 4A9) (antibody, human IgG1, lambda, V domains shown)
VH: QVQLQESGPGLVKPSETLSLTCTVSGGSISGYYWSWIRQPPGKGLEWFAYFSYSGSTNYNPSLKSRVTLSVDTSKNQFSLKLSSVTAADTAVYYCARNWAFHFDFWGQGTLVTVSS
VL: QSVLTQPPSVSGAPGQRVTISCTGSSSNIGTGYAVHWYQQFPGTAPKLLIYGNNNRPSGVPDRFSGSKSGTSASLAITGLQAEDEADYYCQSYDSRLSGWVFGGGTKLTVLG
notes: fully human XenoMouse monoclonal antibody; bin 1; also called Alexa647-labelled 4A9
binds: [1] | [5]

B5: anti-CDH19 antibody 13880 (clone 25F8) (antibody, human IgG1, lambda, V domains shown)
VH: QVQLVQSGAEVKKPGASVKVSCKASGYTFTSYYIHWVRQAPGQGLEWMGIINPSGGSTRYAQKFQGRVTMTRDTSTSTVFMELSSLRSEDTAVYYCARGGIQLWLHFDYWGQGTLVTVSS
VL: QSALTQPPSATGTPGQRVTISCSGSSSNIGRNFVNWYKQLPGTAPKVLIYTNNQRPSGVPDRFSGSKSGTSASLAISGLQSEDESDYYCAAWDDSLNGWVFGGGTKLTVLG
notes: fully human XenoMouse monoclonal antibody; bin 2
binds: [1] | [5]

B6: anti-CDH19 antibody 13882 (clone 26D1) (antibody, human IgG1, lambda, V domains shown)
VH: B5 VH with G26R, I34M, H35S, N52H, S57D, R59T, R72G, F80Y, Q102K
VL: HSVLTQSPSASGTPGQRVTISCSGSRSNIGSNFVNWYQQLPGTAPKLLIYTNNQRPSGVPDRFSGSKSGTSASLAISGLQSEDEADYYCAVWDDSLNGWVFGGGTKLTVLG
notes: as for B5
binds: [1] | [5]
